Here are results for two substances from US20250243281A1.

Test [1] concerns the target BSA (bovine) (UniProt P02769). The test is described as follows: polyspecificity ELISA, BSA-blocked control wells, 100 nM antibody.
The target of test [2] is human insulin (human) (UniProt P01308). As to the kind of experiment: polyspecificity ELISA, coated insulin, 100 nM antibody. In general terms: In an ELISA, binding on a coated surface is turned into a signal by an enzyme label.
In test [3] the target is FcRn (UniProt P55899). The test is described as follows: BLI Octet, biotinylated FcRn on streptavidin sensor, pH 5.0, global 1:1 fit. On the technique in general: BLI is a label-free optical method that tracks binding on a fibre tip over time.
FcRn, sequence (P55899 24-297 limits assumed, form in doubt, chain 1 of 2): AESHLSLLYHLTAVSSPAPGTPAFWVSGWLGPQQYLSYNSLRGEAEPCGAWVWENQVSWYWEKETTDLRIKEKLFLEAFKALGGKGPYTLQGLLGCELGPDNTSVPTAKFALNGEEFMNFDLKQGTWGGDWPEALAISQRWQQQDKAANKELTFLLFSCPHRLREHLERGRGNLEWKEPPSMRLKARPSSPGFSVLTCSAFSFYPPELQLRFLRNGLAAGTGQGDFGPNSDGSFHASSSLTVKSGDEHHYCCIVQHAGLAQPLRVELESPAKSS
FcRn, sequence (chain, as listed by the source limits assumed, form in doubt, chain 2 of 2): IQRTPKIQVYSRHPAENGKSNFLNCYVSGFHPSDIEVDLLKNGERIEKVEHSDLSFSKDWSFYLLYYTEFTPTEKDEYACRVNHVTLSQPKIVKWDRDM

human insulin (human), sequence (P01308 25-54 limits assumed, chain 1 of 2): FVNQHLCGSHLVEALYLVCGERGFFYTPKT
human insulin (human), sequence (P01308 90-110 limits assumed, chain 2 of 2): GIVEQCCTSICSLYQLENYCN
BSA (bovine), sequence (P02769 25-607 limits assumed): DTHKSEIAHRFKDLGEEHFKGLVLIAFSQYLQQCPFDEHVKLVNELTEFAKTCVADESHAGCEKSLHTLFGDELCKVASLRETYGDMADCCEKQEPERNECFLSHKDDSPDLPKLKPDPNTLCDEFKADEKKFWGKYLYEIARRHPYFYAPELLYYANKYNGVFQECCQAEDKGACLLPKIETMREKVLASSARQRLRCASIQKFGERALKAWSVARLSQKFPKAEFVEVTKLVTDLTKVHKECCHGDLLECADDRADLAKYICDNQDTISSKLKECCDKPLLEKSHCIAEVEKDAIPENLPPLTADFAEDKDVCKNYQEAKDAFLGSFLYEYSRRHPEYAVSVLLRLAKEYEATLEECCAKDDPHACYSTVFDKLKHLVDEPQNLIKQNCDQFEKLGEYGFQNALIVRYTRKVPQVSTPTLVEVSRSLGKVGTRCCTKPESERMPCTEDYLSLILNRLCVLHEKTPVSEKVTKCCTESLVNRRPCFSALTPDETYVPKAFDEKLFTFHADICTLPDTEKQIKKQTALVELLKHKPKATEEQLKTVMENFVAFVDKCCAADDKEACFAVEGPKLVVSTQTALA

For the substance Ustekinumab (antibody), the A450 nm in test [1] is 0.1. In test [2], this substance gave an A450 nm of 0.16 and a Norm (signal over AdalimumAb) of 2.29 fold.
The substance wild type human IgG1 antibody yielded a Kd in test [3] of 0.13 nM.

For orientation: Kd means a measure of binding affinity in units of concentration.
